# Assay results published in the supplement of paper PMC7877785.
# ± gives the uncertainty stated by the source.
# Experiment: self-splicing fitness, log relative to wild type (ln ratio); higher = more splicing; Tetrahymena group I intron in knt gene, E. coli kanamycin selection, DiMSum; sequences stand for … in CUCUCU…GGAGGGAAAAGUUAUCAGGCAUGCACCUGGUAGCUAGUCUUUAAACCAAUAGAUUGCAUCGGUUUAAAAGGCAAGACCGUCAAAUUGCGGGAAAGGGGUCAACAGCCGUUCAGUACCAAGUCUCAGGGGAAACUUUGAGAUGGCCUUGCAAAGGGUAUGGUAAUAAGCUGACGGACAUGGUCCUAACCACGCAGCCAAGUCCUAAGUCAACAGAUCUUCUGUUGAUAUGGAUGCAGUUCACAGACUAAAUGUCGGUCGGGGAAGAUGUAUUCUUCUCAUAAGAUAUAGUCGGACCUCUCCUUAAUGGGAGCUAGCGGAUGAAGUGAUGCAACACUGGAGCCGCUGGGAACUAAUUUGUAUGCGAAAGUAUAUUGAUUAGUUUUGGAGUACUCGUGGUCG
# Outline: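 Six replicate transformations of E. coli BL21(DE3) with a pET-22b(+) library were grown overnight at 37°C or 30°C. The library randomised all eight P1ex-region intron nucleotides, the intron lying in the knt kanamycin-resistance gene, and plates were LB agar with or without 25 μg/mL kanamycin plus 100 μg/mL carbenicillin, 50 μM IPTG and 0.2% rhamnose. Pooled colonies were amplicon-sequenced on an Illumina HiSeq 2500, and fitness is the DiMSum error-weighted combination of wild-type-normalised replicate fold changes, kanamycin versus none.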
Sequence,self-splicing fitness (ln) (30 °C),self-splicing fitness (ln) (37 °C)
GAUUAGCAAUAUUACGCGAC,-3.24 ± 0.31,-2.32 ± 0.23
GAUUAGCAAUAUUACGCGCU,–,-1.92 ± 0.4
GAUUAGCAAUAUUACGCUUG,-0.829 ± 0.079,-0.445 ± 0.093
GAUUAGCAAUAUUACGGAAC,-2.84 ± 0.36,-1.7 ± 0.33
GAUUAGCAAUAUUACGGACG,-0.885 ± 0.19,0.241 ± 0.16
GAUUAGCAAUAUUACGGCAA,-0.324 ± 0.15,-0.0501 ± 0.18
GAUUAGCAAUAUUACGGCGC,0.24 ± 0.072,0.233 ± 0.084
GAUUAGCAAUAUUACGGCUA,-0.867 ± 0.099,-0.414 ± 0.1
GAUUAGCAAUAUUACGGGCU,-2.8 ± 0.15,-1.28 ± 0.12
GAUUAGCAAUAUUACGGUGA,-1.31 ± 0.11,-1.24 ± 0.098
GAUUAGCAAUAUUACGGUUA,-0.842 ± 0.14,0.0704 ± 0.15
GAUUAGCAAUAUUACGUAAC,-1.94 ± 0.17,0.224 ± 0.14
GAUUAGCAAUAUUACGUACC,-1.71 ± 0.22,0.563 ± 0.21
GAUUAGCAAUAUUACGUCUG,-2.47 ± 0.23,-1.19 ± 0.16
GAUUAGCAAUAUUACGUGAA,-3.07 ± 0.17,-1.48 ± 0.14
GAUUAGCAAUAUUACGUGUA,-2.22 ± 0.13,-1.63 ± 0.14
GAUUAGCAAUAUUACGUUAG,-2.09 ± 0.32,-2.4 ± 0.45
GAUUAGCAAUAUUACGUUGG,-4.17 ± 0.27,-2.16 ± 0.18
GAUUAGCAAUAUUACGUUUU,-3.88 ± 0.28,-1.59 ± 0.16
GCAAAGCAAUAUUACGAACG,-1.46 ± 0.077,-0.561 ± 0.11
GCAAAGCAAUAUUACGAAUG,-3.4 ± 0.15,-1.77 ± 0.12
GCAAAGCAAUAUUACGACAC,-0.783 ± 0.099,-0.461 ± 0.13
GCAAAGCAAUAUUACGAGGA,-2.49 ± 0.13,-1.83 ± 0.14
GCAAAGCAAUAUUACGAUGU,-2.89 ± 0.15,-1.93 ± 0.17

Sequence,self-splicing fitness (ln) (30 °C),self-splicing fitness (ln) (37 °C)
GCAAAGCAAUAUUACGCCAG,-2.38 ± 0.15,-3.19 ± 0.29
GCAAAGCAAUAUUACGCCUC,-2.69 ± 0.12,-1.86 ± 0.16
GCAAAGCAAUAUUACGCGCA,-0.918 ± 0.096,-0.0967 ± 0.092
GCAAAGCAAUAUUACGGAAC,-1.63 ± 0.18,-0.635 ± 0.17
GCAAAGCAAUAUUACGGCGA,-0.683 ± 0.067,-0.115 ± 0.084
GCAAAGCAAUAUUACGGGAU,-1.93 ± 0.067,-0.98 ± 0.097
GCAAAGCAAUAUUACGGGGC,-4.05 ± 0.34,-3.13 ± 0.31
GCAAAGCAAUAUUACGGGUG,-1.23 ± 0.047,-1.23 ± 0.057
GCAAAGCAAUAUUACGGUCA,-1.12 ± 0.083,-0.197 ± 0.087
GCAAAGCAAUAUUACGUACA,-1.31 ± 0.11,-0.858 ± 0.13
GCAAAGCAAUAUUACGUGAG,-1.11 ± 0.046,-0.539 ± 0.067
GCAAAGCAAUAUUACGUUAG,-3.02 ± 0.13,-1.82 ± 0.14
GCACAGCAAUAUUACGAAAA,-1.7 ± 0.1,-1.09 ± 0.12
GCACAGCAAUAUUACGAAUG,-1.89 ± 0.051,-1.09 ± 0.063
GCACAGCAAUAUUACGACAG,-2.97 ± 0.25,-1.8 ± 0.23
GCACAGCAAUAUUACGACAU,-0.894 ± 0.011,-0.217 ± 0.032
GCACAGCAAUAUUACGACCC,0.615 ± 0.18,0.472 ± 0.25
GCACAGCAAUAUUACGAGCU,-2.63 ± 0.11,-1.07 ± 0.1
GCACAGCAAUAUUACGAUAU,-0.993 ± 0.056,-0.54 ± 0.071
GCACAGCAAUAUUACGCAAC,-2.31 ± 0.17,-1.03 ± 0.19
GCACAGCAAUAUUACGCAAU,-1.14 ± 0.1,-0.864 ± 0.087
GCACAGCAAUAUUACGCCCA,-1.72 ± 0.27,-0.754 ± 0.24
GCACAGCAAUAUUACGCCGU,-1.51 ± 0.1,0.145 ± 0.14
